Two substances from paper PMC2958839, “Multiple FadD Acyl-CoA Synthetases Contribute to Differential Fatty Acid Degradation and Virulence in Pseudomonas aeruginosa” (PLoS ONE, 2010) can be followed below.

Some test systems named below: CCCC(=O)O; CCCCCCCCCC(=O)O; CCCCCCCCCCCCCCCC(=O)O; CCCCCC(=O)O; CCCCCCCCCCCC(=O)O; CCCCCCCC(=O)O; CCCCCCCCCCCCCC(=O)O.
Common to all, as to assay: purified protein
Common to all, as to conditions: 5 mM ATP, 0.5 mM CoASH, 30-300 µM FA, 10 mM MgCl2, 0.1% Triton X-100, pH 7.2, 37°C, printed unit mM conflicts with printed kcat/Km and FA range (implies µM)

FadD1 (Pseudomonas aeruginosa PAO1): the turnover number (kcat) in the series with CCCC(=O)O was found to be 0.141 s⁻¹; with CCCCCCCCCC(=O)O it was 0.119 s⁻¹; with CCCCCCCCCCCCCCCC(=O)O, 0.158 s⁻¹; with CCCCCC(=O)O, 0.137 s⁻¹; with CCCCCCCCCCCC(=O)O it was 0.134 s⁻¹; with CCCCCCCC(=O)O, 0.128 s⁻¹. For the same substance, the kcat in the series on CCCCCCCCCCCCCC(=O)O came to 0.134 s⁻¹.

Consider FadD2 (Pseudomonas aeruginosa PAO1), for which the kcat in the series on CCCCCCCCCCCCCCCC(=O)O is 0.102 s⁻¹; in the series on CCCCCC(=O)O, 0.164 s⁻¹; in the series on CCCCCCCCCCCC(=O)O, 0.141 s⁻¹; in the series on CCCCCCCC(=O)O, 0.210 s⁻¹; in the series with CCCCCCCCCCCCCC(=O)O, 0.112 s⁻¹.

The term kcat denotes the number of substrate molecules converted per active site and unit of time at saturation.
